From article PMC5566574 (Frontiers in Immunology, 2017)

T1: biotinylated human interleukin 23 (human, UniProt Q9NPF7 20-189; P29460 23-328, biotin (Sulfo-NHS-LC-Biotin; sites not stated) | biotin (Sulfo-NHS-LC-Biotin; sites not stated))
T1 construct: interleukin 23 subunit p19, human; p40 subunit shared by IL12 and IL23, human; also called biotinylated hIL23; source: bought: eBioscience; biotinylated using Sulfo-NHS-LC-Biotin (Pierce)
T1 sequence (looked up) 1: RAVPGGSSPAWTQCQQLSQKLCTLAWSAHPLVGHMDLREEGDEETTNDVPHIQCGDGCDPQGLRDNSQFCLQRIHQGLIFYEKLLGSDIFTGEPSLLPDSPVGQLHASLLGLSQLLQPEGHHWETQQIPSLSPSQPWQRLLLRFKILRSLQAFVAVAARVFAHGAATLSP
T1 sequence (looked up) 2: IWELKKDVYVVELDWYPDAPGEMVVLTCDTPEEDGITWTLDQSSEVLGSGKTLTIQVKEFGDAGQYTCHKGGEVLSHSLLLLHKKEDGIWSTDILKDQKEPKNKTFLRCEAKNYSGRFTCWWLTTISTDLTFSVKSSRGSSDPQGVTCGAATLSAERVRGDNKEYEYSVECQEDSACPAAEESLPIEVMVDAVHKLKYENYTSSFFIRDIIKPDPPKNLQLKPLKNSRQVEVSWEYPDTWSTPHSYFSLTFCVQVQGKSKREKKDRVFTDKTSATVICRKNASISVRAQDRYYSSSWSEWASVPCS

T2: p40 subunit of human interleukin 23 (human, UniProt P29460 23-328, saccharidic chain of the complex type at Asn 200 (GlcNAc2-Man3 core seen in the crystal))
T2 construct: p40 subunit shared by IL12 and IL23, human; never handled apart from p19; also called IL12-shared p40 subunit; source: bought as part of hIL23 (R&D Systems Inc. or eBioscience)
T2 sequence (looked up): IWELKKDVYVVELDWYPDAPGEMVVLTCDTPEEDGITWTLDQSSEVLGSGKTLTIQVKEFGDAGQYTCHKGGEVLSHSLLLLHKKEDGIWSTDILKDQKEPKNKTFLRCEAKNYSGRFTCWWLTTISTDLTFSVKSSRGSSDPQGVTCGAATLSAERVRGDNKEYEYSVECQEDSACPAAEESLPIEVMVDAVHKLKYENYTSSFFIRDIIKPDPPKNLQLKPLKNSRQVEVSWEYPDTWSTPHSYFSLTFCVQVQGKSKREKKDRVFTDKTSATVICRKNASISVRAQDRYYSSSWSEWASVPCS


How the values were obtained:
[1] = molecular target: T1, biotinylated human interleukin 23; assay: AlphaScreen or HTRF; serial dilutions of purified nanobody (250 nM to 1 pM) preincubated with 500 pM biotinylated hIL23 or 3 nM biotinylated hIL12; IL23R or IL12Rβ1 on acceptor beads via an antihuman Fc monoclonal antibody; streptavidin donor beads; 1 h at room temperature; settings: both partners purified
[2] = molecular target: T3, cynomolgus monkey (cyno) IL23 (Macaca fascicularis (cynomolgus monkey), UniProt H6WS56;H6WS55); assay: SPR; species cross-reactivity of the monovalent nanobodies on cyno IL23 and mouse IL23; off-rates compared; set-up not described
T3 construct: interleukin 23 subunit p19, cynomolgus monkey; construct not described; p40 subunit, cynomolgus monkey; source: produced at Ablynx, Ghent/Zwijnaarde, Belgium

[3] = molecular target: T4, mouse (m) IL23 (Mus musculus (Mouse)., UniProt Q9EQ14;P43432); assay: as above
T4 construct: interleukin 23 subunit p19, mouse; p40 subunit, mouse; source: bought: R&D Systems Inc

[4] = molecular target: T5, human interleukin 23 (Homo sapiens, UniProt Q9NPF7;P29460, saccharidic chain of the complex type at Asn 200 (GlcNAc2-Man3 core seen in the crystal)); assay: SPR; Biacore T100; hIL23 covalently bound to a CM5 chip via amine coupling; purified nanobodies 1 to 300 nM injected for 4 min at 45 µl/min; settings: both partners purified
T5 construct: interleukin 23 subunit p19, human; p40 subunit shared by IL12 and IL23, human; Heterodimer with a disulfide bridge between Cys 54 (p19) and Cys177 (p40); the splenocyte assay used eBioscience hIL23; also called hIL23; IL23; source: bought: R&D Systems Inc. and eBioscience

[5] = molecular target: T6, p40 subunit of human interleukin 23 (human, UniProt P29460, saccharidic chain of the complex type at Asn 200 (GlcNAc2-Man3 core seen in the crystal)); assay: crystal structure; hIL23 with nanobodies 37D5, 124C4 and 22E11; sitting drop, 277 K, 16.5% PEG 20 K, 0.1 M MES pH 5.9; two complexes per asymmetric unit; PDB 4GRW; settings: both partners purified
T6 construct: p40 subunit shared by IL12 and IL23, human; never handled apart from p19; also called IL12-shared p40 subunit; source: bought as part of hIL23 (R&D Systems Inc. or eBioscience)

[6] = molecular target: T5, human interleukin 23; assay: cell-based or functional assay
[7] = molecular target: T7, biotinylated human interleukin 23 (human, UniProt Q9NPF7;P29460, biotin (Sulfo-NHS-LC-Biotin; sites not stated) | biotin (Sulfo-NHS-LC-Biotin; sites not stated)); assay: AlphaScreen or HTRF; serial dilutions of purified nanobody (250 nM to 1 pM) preincubated with 500 pM biotinylated hIL23 or 3 nM biotinylated hIL12; IL23R or IL12Rβ1 on acceptor beads via an antihuman Fc monoclonal antibody; streptavidin donor beads; 1 h at room temperature; settings: both partners purified
T7 construct: interleukin 23 subunit p19, human; p40 subunit shared by IL12 and IL23, human; also called biotinylated hIL23; source: bought: eBioscience; biotinylated using Sulfo-NHS-LC-Biotin (Pierce)

[8] = molecular target: T2, p40 subunit of human interleukin 23; assay: crystal structure; hIL23 with nanobodies 37D5, 124C4 and 22E11; sitting drop, 277 K, 16.5% PEG 20 K, 0.1 M MES pH 5.9; two complexes per asymmetric unit; PDB 4GRW; settings: both partners purified
[9] = molecular target: T8, IL12Rβ-Fc chimera (human, UniProt P42701 24-545); assay: AlphaScreen or HTRF; serial dilutions of purified nanobody (250 nM to 1 pM) preincubated with 500 pM biotinylated hIL23 or 3 nM biotinylated hIL12; IL23R or IL12Rβ1 on acceptor beads via an antihuman Fc monoclonal antibody; streptavidin donor beads; 1 h at room temperature; settings: both partners purified
T8 construct: interleukin 12 receptor subunit beta 1, human; The materials name it 'IL12Rβ-Fc chimera'; the assay and results name IL12Rβ1 / hIL12Rβ1; also called IL12Rβ1; hIL12Rβ1; source: bought: R&D Systems Inc

[10] = molecular target: human interleukin 12 (human, UniProt P29459;P29460); assay: cell-based or functional assay
[11] = molecular target: T9, biotinylated human interleukin 12 (human, UniProt P29459;P29460, biotin (Sulfo-NHS-LC-Biotin; sites not stated) | biotin (Sulfo-NHS-LC-Biotin; sites not stated)); assay: AlphaScreen or HTRF; serial dilutions of purified nanobody (250 nM to 1 pM) preincubated with 500 pM biotinylated hIL23 or 3 nM biotinylated hIL12; IL23R or IL12Rβ1 on acceptor beads via an antihuman Fc monoclonal antibody; streptavidin donor beads; 1 h at room temperature; settings: both partners purified
T9 construct: p35 subunit of IL12, human; p40 subunit shared by IL12 and IL23, human; also called biotinylated hIL12; source: bought: R&D Systems Inc; biotinylated using Sulfo-NHS-LC-Biotin (Pierce)

T4 sequence (Q9EQ14 22-196, chain 1 of 2): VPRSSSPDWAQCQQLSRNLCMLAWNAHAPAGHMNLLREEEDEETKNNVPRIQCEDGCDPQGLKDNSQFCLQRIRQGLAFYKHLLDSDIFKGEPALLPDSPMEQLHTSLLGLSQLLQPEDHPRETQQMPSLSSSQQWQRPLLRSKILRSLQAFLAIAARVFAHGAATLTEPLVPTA
T4 sequence (P43432 23-335, chain 2 of 2): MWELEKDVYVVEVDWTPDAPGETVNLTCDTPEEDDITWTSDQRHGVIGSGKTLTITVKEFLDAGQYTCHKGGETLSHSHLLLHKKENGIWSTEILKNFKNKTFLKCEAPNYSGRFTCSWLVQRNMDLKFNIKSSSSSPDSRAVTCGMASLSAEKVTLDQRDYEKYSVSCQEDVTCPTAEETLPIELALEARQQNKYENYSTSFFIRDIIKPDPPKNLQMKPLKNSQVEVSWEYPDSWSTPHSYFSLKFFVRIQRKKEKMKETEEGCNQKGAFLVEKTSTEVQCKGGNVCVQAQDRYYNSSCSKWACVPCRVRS

Binder	binding result [2]	binding result [3]	Kd [4]	koff [4]	kon [4]	binding result [5]	further results
hIL23 receptor (R)-fragment crystallizable region (Fc) (Fc fusion, human, UniProt Q5VWK5 24-355, looked up, interleukin 23 receptor, human; also called hIL23R-Fc; source: bought: R&D Systems Inc) GITNINCSGHIWVEPATIFKMGMNISIYCQAAIKNCQPRKLHFYKNGIKERFQITRINKTTARLWYKNFLEPHASMYCTAECPKHFQETLICGKDISSGYPPDIPDEVTCVIYEYSGNMTCTWNAGKLTYIDTKYVVHVKSLETEEEQQYLTSSYINISTDSLQGGKKYLVWVQAANALGMEESKQLQIHLDDIVIPSAAVISRAETINATVPKTIIYWDSQTTIEKVSCEMRYKATTNQTWNVKEFDTNFTYVQQSEFYLEPNIKYVFQVRCQETGKRYWQPWSSLFFHKTPETVPQVTSKAFQHDTWNSGLTVASISTGHLTSDNRGDIG	–	–	–	–	–	–	binding result [1]: binds
p19 subunit of human interleukin 23 (natural protein, UniProt Q9NPF7 20-189, looked up, interleukin 23 subunit p19, human; never handled apart from p40; also called IL23p19; hIL23 p19 subunit; source: bought as part of hIL23 (R&D Systems Inc. or eBioscience)) RAVPGGSSPAWTQCQQLSQKLCTLAWSAHPLVGHMDLREEGDEETTNDVPHIQCGDGCDPQGLRDNSQFCLQRIHQGLIFYEKLLGSDIFTGEPSLLPDSPVGQLHASLLGLSQLLQPEGHHWETQQIPSLSPSQPWQRLLLRFKILRSLQAFVAVAARVFAHGAATLSP	–	–	–	–	–	–	binding result [8]: binds
biotinylated human interleukin 12 (complex, biotin (Sulfo-NHS-LC-Biotin; sites not stated) | biotin (Sulfo-NHS-LC-Biotin; sites not stated), p35 subunit of IL12, human; p40 subunit shared by IL12 and IL23, human; also called biotinylated hIL12; source: bought: R&D Systems Inc; biotinylated using Sulfo-NHS-LC-Biotin (Pierce)) chain 1: RNLPVATPDPGMFPCLHHSQNLLRAVSNMLQKARQTLEFYPCTSEEIDHEDITKDKTSTVEACLPLELTKNESCLNSRETSFITNGSCLASRKTSFMMALCLSSIYEDLKMYQVEFKTMNAKLLMDPKRQIFLDQNMLAVIDELMQALNFNSETVPQKSSLEEPDFYKTKIKLCILLHAFRIRAVTIDRVMSYLNAS chain 2: IWELKKDVYVVELDWYPDAPGEMVVLTCDTPEEDGITWTLDQSSEVLGSGKTLTIQVKEFGDAGQYTCHKGGEVLSHSLLLLHKKEDGIWSTDILKDQKEPKNKTFLRCEAKNYSGRFTCWWLTTISTDLTFSVKSSRGSSDPQGVTCGAATLSAERVRGDNKEYEYSVECQEDSACPAAEESLPIEVMVDAVHKLKYENYTSSFFIRDIIKPDPPKNLQLKPLKNSRQVEVSWEYPDTWSTPHSYFSLTFCVQVQGKSKREKKDRVFTDKTSATVICRKNASISVRAQDRYYSSSWSEWASVPCS	–	–	–	–	–	–	binding result [9]: binds
nanobody 22E11 (VHH, nanobody 22E11 (llama VHH); both add C-terminal c-myc and hexa-histidine tags; also called p40+ nanobody 22E11; source: E. coli TG1, periplasmic extract (screening); purified (Ni-NTA; Superdex75 for crystallization); not shown: c-myc, C-terminal, kept) VHH: EVQLVESGGGLVQAGGSLRLSCAASGRTFSWSAVGWFRQAPGKEREFVAAIRWSGGSPYYADSVKDRFTISRDNAKNTVYLQMNSLRPEDTAVYLCGETSLFPTSRGSHYDTWGQGTQVTVSS	binds	no binding	–	0.00023 s⁻¹	–	binds	IC50 of block of hIL12-dependent proliferation of PHA blasts (4 pM hIL12 for stimulation; data not shown) [10]: 95 pM; IC50 of inhibition of mIL22 secretion by mouse splenocytes stimulated with 19 pM hIL23 [6]: 186 pM; IC50 [11]: 1.3 nM

More lines, main results first:

binding result [2]	binding result [3]	Kd [4]	koff [4]	kon [4]	binding result [5]	Binder	further results
binds	binds	3.3 nM	0.00033 s⁻¹	100000 M⁻¹ s⁻¹	binds	nanobody 124C4 (VHH, nanobody 124C4 (llama VHH); both add C-terminal c-myc and hexa-histidine tags; also called p19− nanobody 124C4; source: E. coli TG1, periplasmic extract (screening); purified (Ni-NTA; Superdex75 for crystallization); not shown: c-myc, C-terminal, kept) VHH: EVQLVESGGGLVQPGGSLRLSCAASGFTLDDYAIAWFRQAPGKEREGVSGIDSGDGSAYYADSVKGRFTISSDNAKNTVYLQMNSLRPEDTAVYYCARVRTGWGLNAPDYAMDYWGKGTLVTVSS	–
binds	no binding	0.6 nM	0.00018 s⁻¹	320000 M⁻¹ s⁻¹	binds	nanobody 37D5 (VHH, nanobody 37D5 (llama VHH); both add C-terminal c-myc and hexa-histidine tags; also called p19+ nanobody 37D5; source: E. coli TG1, periplasmic extract (screening); purified (Ni-NTA; Superdex75 for crystallization); not shown: c-myc, C-terminal, kept) VHH: EVQLVESGGGLVQPGGSLRLSCAASGFTLDYLAIGWFRQAPGKEREGVSCVSSSGQYTYYADSVKGRFTISRDNAESTVYLQMNSLKPEDTAVYYCATDPECYRVRGYYNGEYDYWGQGTQVTVSS	IC50 of inhibition of mIL22 secretion by mouse splenocytes stimulated with 19 pM hIL23; blocks IL23/IL23R [6]: 19 pM; IC50 [7]: 0.11 nM
